Ends that are not written are not given here.
How the values were obtained:
Experiment in all cases: cyclic peptide substitution array
[1] = biological target: T1, ApoC3 peptide E70Y (human, cyclic (thioether))
T1 peptide: DKFSEFWDLDPYV
In short: (§1)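 Peptide microarrays incubated with antibody samples, then stained with goat anti-human IgG (Fc) DyLight680 and anti-HA DyLight800 control antibodies, scanned at intensity 7/7 (red/green). Secondary-only pre-stain checked background binding; framing HA peptides served as quality control; substitution effects read as changes in spot intensity.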

[2] = biological target: T2, ApoC3 peptide L67Q (human, thioether (positions not given here); not fully specified (bridges); also: thioether between a C-terminal Cys side chain and a modified N-terminus, the Cys is not in the chain)
T2 peptide: DKFSEFWDQDPEV
In short: as §1

[3] = biological target: T3, ApoC3 peptide F61Y (human, cyclic (thioether))
T3 peptide: DKYSEFWDLDPEV
In short: as §1

[4] = biological target: T4, ApoC3 peptide E70Q (human, cyclic (thioether))
T4 peptide: DKFSEFWDLDPQV
In short: as §1

[5] = biological target: T5, ApoC3 peptide L67W (human, thioether (positions not given here); not fully specified (bridges); also: thioether between a C-terminal Cys side chain and a modified N-terminus, the Cys is not in the chain)
T5 peptide: DKFSEFWDWDPEV
In short: as §1

[6] = biological target: T6, ApoC3 peptide L67E (human, thioether (positions not given here); not fully specified (bridges); also: thioether between a C-terminal Cys side chain and a modified N-terminus, the Cys is not in the chain)
T6 peptide: DKFSEFWDEDPEV
In short: as §1

[7] = biological target: T7, ApoC3 peptide D68N (human, cyclic (thioether))
T7 peptide: DKFSEFWDLNPEV
In short: as §1

[8] = biological target: T8, ApoC3 peptide K60Y (human, cyclic (thioether))
T8 peptide: DYFSEFWDLDPEV
In short: as §1

[9] = biological target: T9, ApoC3 peptide F64A (human, cyclic (thioether))
T9 peptide: DKFSEAWDLDPEV
In short: as §1

[10] = biological target: T10, ApoC3 peptide E63P (human, cyclic (thioether))
T10 peptide: DKFSPFWDLDPEV
In short: as §1

[11] = biological target: T11, ApoC3 peptide D66K (human, not fully specified; cyclic (thioether))
T11 peptide: DKFSEFWKLDPEV
In short: as §1

[12] = biological target: T12, ApoC3 peptide K60L (human, cyclic (thioether))
T12 peptide: DLFSEFWDLDPEV
In short: as §1

[13] = biological target: T13, ApoC3 peptide L67D (human, thioether (positions not given here); not fully specified (bridges); also: thioether between a C-terminal Cys side chain and a modified N-terminus, the Cys is not in the chain)
T13 peptide: DKFSEFWDDDPEV
In short: as §1

[14] = biological target: T14, ApoC3 peptide P69E (human, not fully specified; cyclic (thioether))
T14 peptide: DKFSEFWDLDEEV
In short: as §1

[15] = biological target: T15, ApoC3 peptide E70W (human, cyclic (thioether))
T15 peptide: DKFSEFWDLDPWV
In short: as §1

[16] = biological target: T16, ApoC3 peptide V71E (human, thioether (positions not given here); also: cyclic (thioether), ring places not given here)
T16 peptide: DKFSEFWDLDPEE
In short: as §1

[17] = biological target: T17, ApoC3 peptide F61H (human, cyclic (thioether))
T17 peptide: DKHSEFWDLDPEV
In short: as §1

[18] = biological target: T18, ApoC3 peptide P69G (human, not fully specified; cyclic (thioether))
T18 peptide: DKFSEFWDLDGEV
In short: as §1

[19] = biological target: T19, ApoC3 peptide F64P (human, thioether (positions not given here); not fully specified (bridges); also: cyclic (thioether), positions not given here)
T19 peptide: DKFSEPWDLDPEV
In short: as §1

[20] = biological target: T20, ApoC3 peptide E63F (human, not fully specified; cyclic (thioether))
T20 peptide: DKFSFFWDLDPEV
In short: as §1

[21] = biological target: T21, ApoC3 peptide F64R (human, thioether (positions not given here); not fully specified (bridges); also: cyclic (thioether), positions not given here)
T21 peptide: DKFSERWDLDPEV
In short: as §1

[22] = biological target: T22, ApoC3 peptide W65A (human, not fully specified; cyclic (thioether))
T22 peptide: DKFSEFADLDPEV
In short: as §1

[23] = biological target: T23, ApoC3 peptide D59Q (human, thioether (positions not given here); not fully specified (C-terminus, bridges); also: cyclised via thioether between a C-terminal Cys and a modified N-terminus, the Cys and the N-terminal …)
T23 peptide: QKFSEFWDLDPEV
In short: as §1

[24] = biological target: T24, ApoC3 peptide V71Y (human, not fully specified; cyclic (thioether))
T24 peptide: DKFSEFWDLDPEY
In short: as §1

[25] = biological target: T25, ApoC3 peptide F64M (human, thioether (positions not given here); not fully specified (bridges); also: cyclic (thioether), positions not given here)
T25 peptide: DKFSEMWDLDPEV
In short: as §1

[26] = biological target: T26, ApoC3 peptide E70C (human, cyclic (thioether))
T26 peptide: DKFSEFWDLDPCV
In short: as §1

[27] = biological target: T27, ApoC3 peptide D59E (human, thioether (positions not given here); not fully specified (C-terminus, bridges))
T27 peptide: EKFSEFWDLDPEV
In short: as §1

[28] = biological target: T28, ApoC3 peptide V71T (human, not fully specified; cyclic (thioether))
T28 peptide: DKFSEFWDLDPET
In short: as §1

[29] = biological target: T29, ApoC3 peptide D59F (human, thioether (positions not given here); not fully specified (C-terminus, bridges))
T29 peptide: FKFSEFWDLDPEV
In short: as §1

B1: Llama antibody 5E5 (antibody, V domains shown)
VH: QLQLVESGGGLVQPGGSLRLSCAASGFTFGTYSMRWVRQVPRKALEWVSSISTDGGGTAYRDSVKGRFTISRDNAKNTLYLQMNNLKPEDTAIYYCVIAGYSDWGQGTQVTVSS
VL: ATMLTQSPGSLSVVPGESASISCKTSQGLVHSDGKTYFYWFLQKPGQSPQQLIYQVSNRASGVPDRFTGSGSGTDFTLKISGVKAEDAGVYYCAQGTYYPHTFGSGTRLEIK
notes: detected with goat anti-human IgG (Fc); also called mAb 5E5
% of binding to wild-type peptide [1]: 50.7%
% of binding to wild-type peptide [2]: 3.99%
% of binding to wild-type peptide [3]: 126%
% of binding to wild-type peptide [4]: 68%
% of binding to wild-type peptide [5]: 1.45%
% of binding to wild-type peptide [6]: 0.45%
% of binding to wild-type peptide [7]: 0%
% of binding to wild-type peptide [8]: 56.3%
% of binding to wild-type peptide [9]: 220%
% of binding to wild-type peptide [10]: 81.2%
% of binding to wild-type peptide [11]: 0%
% of binding to wild-type peptide [12]: 107%
% of binding to wild-type peptide [13]: 0.99%
% of binding to wild-type peptide [14]: 43%
% of binding to wild-type peptide [15]: 35.4%
% of binding to wild-type peptide [16]: 127%
% of binding to wild-type peptide [17]: 12.1%
% of binding to wild-type peptide [18]: 24.6%
% of binding to wild-type peptide [19]: 528%
% of binding to wild-type peptide [20]: 57.1%
% of binding to wild-type peptide [21]: 73.7%
% of binding to wild-type peptide [22]: 0%
% of binding to wild-type peptide [23]: 68.3%
% of binding to wild-type peptide [24]: 87.4%
% of binding to wild-type peptide [25]: 132%
% of binding to wild-type peptide [26]: 27.1%
% of binding to wild-type peptide [27]: 128%
% of binding to wild-type peptide [28]: 96.7%
% of binding to wild-type peptide [29]: 31.6%

Source: patent publication US20190241648A1 (STATEN BIOTECHNOLOGY B V, published 2019)
